35 molecules from US20100279930A1 (published 2010) can be followed below.

What all share (assay): 125I-PP displacement
Assay [1] deals with T1, human Y4 receptor (human, UniProt P50391 1-375).
Assay [2] addresses T1, human Y4 receptor. This is another data set of the same source.
The target of assay [3] is T1, human Y4 receptor. This is another data set of the same source.
Assay [4] concerns the target T1, human Y4 receptor. The source holds these as a separate data set.
In assay [5] the target is T1, human Y4 receptor. This is another data set of the same source.

Like-named read-outs stand apart in the source and are kept apart here. No end group written: not given here.

T1 sequence (P50391 whole entry): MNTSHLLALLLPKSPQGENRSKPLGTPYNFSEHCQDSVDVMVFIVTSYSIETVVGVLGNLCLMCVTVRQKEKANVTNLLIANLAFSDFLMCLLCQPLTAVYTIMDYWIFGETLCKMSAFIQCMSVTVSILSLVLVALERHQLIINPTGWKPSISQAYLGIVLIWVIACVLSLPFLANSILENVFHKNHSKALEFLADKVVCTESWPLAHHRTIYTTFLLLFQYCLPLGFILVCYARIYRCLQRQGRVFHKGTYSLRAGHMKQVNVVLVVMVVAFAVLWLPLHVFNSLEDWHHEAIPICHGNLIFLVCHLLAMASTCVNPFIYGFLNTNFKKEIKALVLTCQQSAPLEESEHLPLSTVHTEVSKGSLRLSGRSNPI

In the case of APLEPSYPGDNATPEQLAKYAAELRRYINKLTRPRY [4058913], the IC50 in the assay with human Y4 receptor [1] was determined as 0.0775 nM. AAAPLEPVYPGDNATPEQMAQYAADLRRYINMLTRPRY [6655]: the IC50 in the assay with human Y4 receptor [2] was 0.28 nM.

GAPLEPKYPGDNATPEEKAKYAAELRRYINKLTRPRY [4061236]: the IC50 with human Y4 receptor [3] stood at 0.052 nM. As for PAPLEPTYPGDNATPEEKAKYYSELRRYINKLTRPRY [4061239], in the assay with human Y4 receptor [3], the IC50 was 0.054 nM. Still for that read-out and setting: the same measure for GAPLEPKYPGDNATPEEMAKYAAELRRYIDKLTRPRY [4061238]: 0.138 nM; for PAPLEPKYPGDNATPEQMAKYAAELRRYINKLTRPRY [4068672]: 0.059 nM; for PAPLEPKYPGDNATPEEKAKYAAELRRYINKLTRPRY [4061235]: 0.054 nM. For GAPLEPKYPGDNATPEEMAKYAAELRRYINKLTRPRY [4058911], in the assay with human Y4 receptor [1], the IC50 was determined as 0.077 nM. Turning to PAPLEPKYPGDNATPEEMAKYAAELRRYIDKLTRPRY [4061237], the IC50 in the assay with human Y4 receptor [3] was 0.16 nM. APLEPVYPGDNATPEELNRYYASLRRYINMLTRPRY [6460] gave an IC50 in the assay with human Y4 receptor [2] of 0.2 nM. AAPLEPVYPGDNATPEQMAKYAADLRRYINKLTRPRY [compound of SEQ ID NO:348 (Ala 0, Lys19, Lys 30, code 4056385)] yielded an IC50 with human Y4 receptor [4] of 0.051 nM. That is a picomolar value.

As to DAPLEPVYPGDNATPEQMAQYAADLRRYINMLTRPRY [6652], the IC50 with human Y4 receptor [2] was found to be 0.36 nM. For KAPLEPVYPGDNATPEQMAQYAADLRRYINMLTRPRY [compound of SEQ ID NO:52 (code 6647)], in the assay with human Y4 receptor [2], the IC50 stood at 0.21 nM. Still for that read-out and setting: with EAPLEPVYPGDNATPEQMAQYAADLRRYINMLTRPRY [6651] the figure was 0.35 nM; with APLEPVYPGDNATEEEAVRLFIDLRRYINMLTRPRY [6621], 16 nM. The molecule PLEPSYPGDNATPEQLAKYAAELRRYINKLTRPRY [4058912] yielded an IC50 with human Y4 receptor [1] of 0.0495 nM. This counts as picomolar. Consider APLEPVYPGDNATPEQMAQYAADLRRYINILTRPRY (ends and bridges not checked) [compound of SEQ ID NO:259 (code 4055713)], for which the IC50 in the assay with human Y4 receptor [5] came out at 0.22 nM. In the assay with human Y4 receptor [2], APLEPVYPGDNATPEQMAQYAADLRRYINTLTRPRY [6437] came in with an IC50 of 0.3 nM. Same read-out and setting: the same measure for APKEPVYPGDNATPEQMAQYAADLRRYINMLTRPRY [6463]: 0.67 nM; for APLEPVYPGDNATHEQMAQYAADLRRYINMLTRPRY [6441]: 0.3 nM; for APLKPVYPGDNATPEQMAQYAADLRRYINMLTRPRY [5920]: 4.5 nM. Same read-out and setting: with KPLEPVYPGDNATPEQMAQYAADLRRYINMLTRPRY [6436] the figure was 0.48 nM. For APLEPVYPGDYATPEQMAQYAADLRRYINMLTRPRY [6440], in the assay with human Y4 receptor [2], the IC50 turned out to be 0.26 nM. Consider APLEPVYPGDNATPEQMAQYAADLRRYINFLTRPRY (ends and bridges not checked) [compound of SEQ ID NO:261 (code 4055715)], for which, in the assay with human Y4 receptor [5], the IC50 was determined as 0.13 nM. In the case of APLKPVYPGDNATPEQMAQYAADLRRYINMLTRPRY [6443], in the assay with human Y4 receptor [2], the IC50 was 4 nM. That is a single-digit nanomolar value. In the assay with human Y4 receptor [2], APLEPVYPGDNATPEKMAQYAADLRRYINMLTRPRY [6466] gave an IC50 of 1.29 nM. On to APLEPVYPGDNATPEQMAQYAAALRRYINMLTRPRY [compound of SEQ ID NO:277 (Ala 23, code 4055747)], for which the IC50 in the assay with human Y4 receptor [5] was found to be 0.079 nM. The same measure, in the same setting: with APLEPVYPGDNATPEQMAQYAADLRRYINMLTRPRF (ends and bridges not checked) [compound of SEQ ID NO:255 (code 4055708)] the figure was 0.16 nM.

With APLEPVYPGDNATPEQMAQYAADLRRYINVLTRPRY (ends and bridges not checked) [compound of SEQ ID NO:260 (code 4055714)], the IC50 with human Y4 receptor [5] was determined as 0.09 nM. APLEPFYPGDNATPEQMAQYAADLRRYINMLTRPRY (ends and bridges not checked) [compound of SEQ ID NO:275 (code 4055745)]: the IC50 in the assay with human Y4 receptor [5] is 0.17 nM. Compared with the last molecule, the IC50 is about 1.9-fold higher.

APLEPVYPGDNATPEQMAQYAADLRRYINKLTRPRY [compound of SEQ ID NO:281 (Lys 30, code 4055855)]: the IC50 with human Y4 receptor [5] was determined as 0.16 nM.

On to APLEPEYPGDNATPEQMAQYAADLRRYINMLTRPRY (ends and bridges not checked) [compound of SEQ ID NO:276 (4055746)], for which, in the assay with human Y4 receptor [5], the IC50 was 0.16 nM. That is a sub-nanomolar value. Regarding APLEPVYPGDNATPEQMARYAADLRRYINMLTRPRY [6606], the IC50 with human Y4 receptor [2] was 0.16 nM. This counts as sub-nanomolar. The molecule APLEPVYPGDNATPEQMAQYAKDLRRYINMLTRPRY [6465] yielded an IC50 with human Y4 receptor [2] of 0.85 nM. In turn, PLEPHYPGDDATPQQMAHYYSELRRYINKLTRPRY [4457895] came in with an IC50 in the assay with human Y4 receptor [3] of 0.145 nM.
